The target of data set [1] is Leeuwenhoekiella blandensis class I ribonucleotide reductase radical-generating subunit NrdB (LbNrdB) (Leeuwenhoekiella blandensis). Put plainly: SEC-SAXS; LbNrdB alone, 350 μL of 11 mg/ml with 1 mM dATP loaded on Superdex S200; SEC buffer 50 mM Tris-HCl pH 7.6, 300 mM NaCl, 2 mM DTT, 1 mM Mg acetate, 0.4 mM dATP, 5% glycerol. For orientation: Size exclusion chromatography separates by hydrodynamic size, large species first.

Data set [2] shares this target. Put plainly: cryo-EM structure; LbNrdAB complex formed with dATP, isolated on Superdex 200 with on-column 0.05% glutaraldehyde cross-linking in HEPES buffer; single particle reconstruction at 8.2 Å, no symmetry imposed.
Data set [3] has the same target. Briefly: SEC-SAXS; LbNrdA and LbNrdB mixed at 85 μM each with 1 mM dATP and 2 mM magnesium acetate, 5 min, on Superdex S200; SEC buffer 50 mM Tris-HCl pH 7.6, 300 mM NaCl, 2 mM DTT, 1 mM Mg acetate, 0.4 mM dATP, 5% glycerol.
Data set [4] concerns the molecule itself. Briefly: SAXS; batch mode, LbNrdA 0.625-5 mg/ml in 50 mM Tris-HCl pH 7.6, 300 mM NaCl, 2 mM DTT, 5% glycerol, 2 mM magnesium acetate, 1 mM dATP; 10 °C.

Results on 2 molecules are retold here after paper PMC8350387, “Solution Structure of the dATP-Inactivated Class I Ribonucleotide Reductase From Leeuwenhoekiella blandensis by SAXS and Cryo-Electron Microscopy” (Frontiers in Molecular Biosciences, 2021).

As for “Leeuwenhoekiella blandensis class I ribonucleotide reductase radical-generating subunit NrdB (LbNrdB) (enzyme)”, the stoichiometry N in data set [1], in data set [2] and in data set [3] was 4 in each case.

B1: Leeuwenhoekiella blandensis class I ribonucleotide reductase catalytic subunit NrdA (LbNrdA) (enzyme, UniProt A3XHF8 1-600, looked up)
chain: MRENTTKLENSTETNVQHTKDNDLLKARRDALQDATEKNTDEPSFDWLTEHSRSFLAAGYLSEGVSAEERIREIADRAEEILRMPGFSDKFYKYMGEGYFSLASPVWSNFGKKRGLPISCFGSHIDDDMGNILYTQSEVGMMSKLGGGTSGYFGKIRHRGAAVKNNGYASGAVHIMQLFDKMVDVVSQGSVRRGRFSPYLPISHPDIKEFLEIGTEGNSIQQLTHGVTVDSTWMQEMIDGDTDKREVWAKVLQRRGEMGYPYIFYTDNANNGKPDVYKDKGHDIYASNLCTEIMLPSSDEWSFVCVLSSINVLHYDKWKNTDAVETMVCFLDAVLTEFIDKLEEYRDSDNRDHRQTFMFMERAYNFAKSNRALGLGVLGWHSLLQSKRHAFDSQEAYDLNSEIFREIKQRSYKASEELAEKFGEPETLKGYGRRNATLNAIAPTTSSAFILGQVSQGIEPIWSNVYVKDIAKIKTTIKNPFLEELFEEKGMNTPEVWRSVRDNDGSVQHLEFLTEQEKDVFKTYAEIDQMAIIYQAANRQNHIDQGQSINLLVHPDMPIKEINKIHITAWKLGLKSLYYQHSMNAAQKFKQKKECVSCEA
notes: NrdA (α subunit, subclass NrdAi, lacks an ATP-cone) of Leeuwenhoekiella blandensis; the homology model covers residues 40-596 and lacks 43 terminal residues per monomer; Dimer (α2) with dATP by SAXS; also called α2 (dimer); source: purified as described previously (Rozman Grinberg et al., 2018a); not shown: His6, N-terminal, kept
For B1, the “stoichiometry N” value in data set [4] amounted to 2. The stoichiometry N (LbNrdA per LbNrdB (α4β4)) in data set [3] was determined as 1.

The term stoichiometry N denotes a count of units in the complex or per binding partner.
